Laboratory results: paper PMC13065467, “Assembly and phosphoregulatory mechanisms of the budding yeast outer kinetochore KMN complex” (The Journal of Cell Biology, 2026)

How the values were obtained:
[1] = test system: K^HB-RWDM^Dsn1Δ257_Δhead1; experiment: ITC, Dsn1 peptide titrated into head 1-deleted complex; assay type: binding, S. cerevisiae; settings: 25°C, 25 mM HEPES pH 7.5, 100 mM NaCl, 1 mM TCEP, syringe 0.3 mM, cell 0.025 mM, two experiments
[2] = test system: K^HB-RWDM^Dsn1Δ257_Mis12-3A; experiment: ITC, Dsn1 peptide titrated into Mis12-3A mutant complex; assay type: binding, S. cerevisiae; settings: ratio of ITC KD values, Mis12-3A mutant complex versus K^HB-RWDM^Dsn1Δ257
Method: Dsn1^228–254 and Dsn1^228–254,S240E,S250E peptides were synthesized by Alta BioScience with N-terminal acetylation and C-terminal GSAW extension and amidation. The final sequence of Dsn1^228–254 was […], and Dsn1^228–254,S240E,S250E was […]. All protein complexes and peptides used in a given experiment were dialyzed for a minimum of 16 h and/or buffer-exchanged by size-exclusion chromatography into the same batch of ITC buffer (25 mM HEPES, pH 7.5, 100 mM NaCl, 1 mM TCEP). All experiments were performed using an Auto-iTC200 instrument (Malvern Instruments) at 25°C. In each experiment, 360 μl of protein complex was pipetted into the calorimeter cell. The protein complex loaded into the calorimeter cell contained Knl1c:Mis12c^Mtw1c with Knl1^Spc105_HB-RWD and Dsn1^Δ1–257 and either wild-type Mis12^Mtw1 (K^HB-RWDM ^Dsn1Δ257) or Mis12^Mtw1_E69A,E73A,E77A mutant (K^HB-RWDM ^Dsn1Δ257_Mis12-3A). Wild-type constructs of all other Knl1c and Mis12c^Mtw1c subunits were included. Titration of either the Dsn1^228–254 or Dsn1^228-254,S240E,S250E peptide into the cell was then performed by an initial injection of 0.5 μl, followed by 19 further injections of 2.0 μl each. […] Titrations were performed in duplicate or triplicate, and reported KD and n values were calculated as an average from all replicate results.

[3] = target: Knl1c:Mis12c^Mtw1c complex K^HB-RWDM^Dsn1Δ257_Mis12-3A (K^HB-RWDM^Dsn1Δ257 containing mutant … (S. cerevisiae, UniProt P53148 445-917)); Q04431 1-385; P40568 258-576; P39731 1-289; P47149 1-201; …, E69A | E73A | E77A (construct name; the text of the results says Asp77)); experiment: ITC
[4] = target: T1, Knl1c:Mis12c^Mtw1c complex K^HB-RWDM^Dsn1Δ257 (Knl1^Spc105 residues 1–444 and Dsn1 residues 1–257 deleted) (S. cerevisiae, UniProt P53148 445-917; Q04431 1-385; P40568 258-576; P39731 1-289; P47149 1-201; …); experiment: SEC; 4 μM Knl1c:Mis12c^Mtw1c complex mixed with 4 μM CENP-C^Mif2_1-63 or CENP-QU in KMN buffer, 30 min on ice; Superose 6 3.2/300 in 20 mM HEPES pH 7.5, 150 mM NaCl, 1 mM TCEP; fractions on SDS-PAGE; settings: both partners purified
T1 construct: Knl1^Spc105_HB-RWD: Knl1^Spc105, S. cerevisiae S288c, residues 445-917; ZWINT^Kre28, S. cerevisiae S288c; no truncation stated; Mis12^Mtw1, S. cerevisiae S288c; wild-type, no truncation stated; Nnf1, S. cerevisiae S288c; Nsl1, S. cerevisiae S288c; source: High-5 insect cells (two baculoviruses), purified (Strep-Tactin, SEC); copies: + + + + +

[5] = target: T2, Knl1c:Mis12c^Mtw1c complex K^HB-RWDM^2E (full-length Dsn1 with S240E and S250E phosphomimetic mutations) (S. cerevisiae, UniProt P53148 445-917; Q04431 1-385; P40568 1-576; P39731 1-289; P47149 1-201; Q12143 …, S240E | S250E); experiment: as above; settings: both partners purified
T2 construct: Knl1^Spc105_HB-RWD: Knl1^Spc105, S. cerevisiae S288c, residues 445-917; ZWINT^Kre28, S. cerevisiae S288c; no truncation stated; Dsn1^S240E,S250E: full-length Dsn1, S. cerevisiae S288c, with phosphomimetic mutations; Mis12^Mtw1, S. cerevisiae S288c; Nnf1, S. cerevisiae S288c; Nsl1, S. cerevisiae S288c; also called KM^2E; K^HB-RWDM^S240E,S250E; source: High-5 insect cells (baculovirus), purified …

[6] = target: T3, Knl1c:Mis12c^Mtw1c complex K^HB-RWDM^Dsn1Δ226-2E (Dsn1 residues 1–226 deleted, with S240E and S250E … (S. cerevisiae, UniProt P53148 445-917; Q04431 1-385; P40568 227-576; P39731 1-289; P47149 1-201; …, S240E | S250E); experiment: as above; settings: both partners purified
T3 construct: Knl1^Spc105_HB-RWD: Knl1^Spc105, S. cerevisiae S288c, residues 445-917; ZWINT^Kre28, S. cerevisiae S288c; no truncation stated; Dsn1^Δ1–226,S240E,S250E: Dsn1, S. cerevisiae S288c, residues 1-226 deleted, phosphomimetic mutations; Mis12^Mtw1, S. cerevisiae S288c; Nnf1, S. cerevisiae S288c; Nsl1, S. cerevisiae S288c; also called K^HB-RWDM^Dsn1Δ226,S240E,S250E; source: High-5 insect cells …

K^HB-RWDM^Dsn1Δ257 = experiment: analytical SEC reconstitution with K^HB-RWDM^Dsn1Δ257; assay type: binding, S. cerevisiae; settings: Superose 6 3.2/300, 4 μM each, pH 7.5, Dsn1 residues 1–257 deleted
Method: (§1) To test the effect of deleting or mutating regions of the Dsn1 N-terminal disordered domain on Mis12c^Mtw1c auto-inhibition, 4 μM concentrations of Knl1c:Mis12c^Mtw1c complexes containing Knl1^Spc105_HB-RWD and different Dsn1 constructs were mixed with 4 μM concentrations of either CENP-C^Mif2_1-63 or CENP-QU in KMN buffer. Knl1c:Mis12c^Mtw1c complexes used contained one of the following Dsn1 constructs: K^HB-RWDM, contained full-length and wild-type Dsn1; K^HB-RWDM^S240E,S250E, contained Dsn1^S240E,250E; K^HB-RWDM^Dsn1Δ226, contained Dsn1^Δ1–226; K^HB-RWDM^Dsn1Δ257, contained Dsn1^Δ1–257; K^HB-RWDM^Dsn1Δ226,S240E,S250E, contained Dsn1^Δ1–226,S240E,S250E. Protein mixtures were incubated together on ice for 30 min to attempt to reconstitute a protein complex. 100 μl of individual proteins or protein complexes or reconstitution mixtures was loaded onto a Superose 6 3.2/300 size-exclusion chromatography column (Cytiva) equilibrated in (20 mM HEPES, pH 7.5, 150 mM NaCl, 1 mM TCEP), and 100 μl eluate fractions were collected. Aliquots of each indicated eluate fraction were mixed 1:1 (volume/volume) with 2xLDS-PAGE loading buffer supplied by Thermo Fisher Scientific, supplemented with DTT, boiled for 3 min at 95°C, and analyzed by SDS-PAGE.

KM2E = experiment: SPR, binding to KM2E (review history, removed from manuscript); design: species or system S. cerevisiae; settings: data removed from manuscript, review history only
K^HB-RWDM = experiment: analytical SEC reconstitution with K^HB-RWDM; assay type: binding, S. cerevisiae; settings: Superose 6 3.2/300, 4 μM each, 20 mM HEPES pH 7.5, 150 mM NaCl, 1 mM TCEP, 30 min on ice
Method: as §1

K^HB-RWDM^Dsn1Δ226 = experiment: analytical SEC reconstitution with K^HB-RWDM^Dsn1Δ226; assay type: binding, S. cerevisiae; settings: Superose 6 3.2/300, 4 μM each, pH 7.5, Dsn1 residues 1–226 deleted
Method: as §1

K^HB-RWDM^2E = experiment: analytical SEC reconstitution with K^HB-RWDM^2E; assay type: binding, S. cerevisiae; settings: Superose 6 3.2/300, 4 μM each, pH 7.5, full-length Dsn1 S240E,S250E
Method: as §1

K^HB-RWDM^Dsn1Δ226-2E = experiment: analytical SEC reconstitution with K^HB-RWDM^Dsn1Δ226-2E; assay type: binding, S. cerevisiae; settings: Superose 6 3.2/300, 4 μM each, pH 7.5, Dsn1 Δ1–226,S240E,S250E
Method: as §1

Molecule: Ac-PHYIQRTRERKKSIGSQRGRRLSMLASGSAW-NH2 [Dsn1^228-254]
- binding (ITC) [1]: did not bind
- increase of KD versus K^HB-RWDM^Dsn1Δ257 [2]: threefold

Molecule: Ac-PHYIQRTRERKKSIGSQRGRRLSMLASGSAW-NH2 [Dsn1^228–254 peptide]
- Kd [3]: 4060 nM

B1: CENP-C^Mif2 residues 1–63 (CENP-C^Mif2_1–63) (domain or fragment, S. cerevisiae, UniProt P35201 1-63, looked up)
chain: MDYMKLGLKSRKTGIDVKQDIPKDEYSMENIDDFFKDDETSLISMRRKSRRKSSLFLPSTLNG
notes: CENP-C^Mif2, S. cerevisiae S288c, residues 1-63; source: E. coli BL-21 CodonPlus-RIL, purified (HisTrap, Ulp1 cleavage, reverse IMAC, Resource S, SEC); not shown: 6xHis-SUMO, N-terminal, cleaved
- binding result [4]: binds
- binding result [5]: binds
- binding result [6]: binds

B2: CENP-C^Mif2_1-63: recombinant N-terminal fragment of S. cerevisiae CENP-C^Mif2 comprising residues 1–63 (protein)
chain: B1 chain
modifications: left off: 6xHis-SUMO, N-terminal, cleaved
- binding by SEC (K^HB-RWDM^Dsn1Δ257): did interact
- Kd (KM2E): 260 nM
- binding by SEC (K^HB-RWDM; full-length wild-type Dsn1): did not bind
- binding by SEC (K^HB-RWDM; full-length wild-type Dsn1, listed as CENP-C N-terminus (residues 1-63)): did not
- binding by SEC (K^HB-RWDM^Dsn1Δ226): did not bind
- binding by SEC (K^HB-RWDM^2E): sufficient to abolish Mis12c^Mtw1c auto-inhibition
- binding by SEC (K^HB-RWDM^2E; listed as CENP-C (residues 1-63)): bound KM2E
- binding by SEC (K^HB-RWDM^Dsn1Δ226-2E): sufficient to abolish Mis12c^Mtw1c auto-inhibition
